Experimental data: patent US20200009190A1

Molecular target: CD200 expressed on FBL leukemia cells transduced with CD200 (CD200+ FBL) (UniProt O54901)
Test: cell-based or functional assay

Chain of CD200 expressed on FBL leukemia cells transduced with CD200 (CD200+ FBL) (O54901 31-278 limits assumed): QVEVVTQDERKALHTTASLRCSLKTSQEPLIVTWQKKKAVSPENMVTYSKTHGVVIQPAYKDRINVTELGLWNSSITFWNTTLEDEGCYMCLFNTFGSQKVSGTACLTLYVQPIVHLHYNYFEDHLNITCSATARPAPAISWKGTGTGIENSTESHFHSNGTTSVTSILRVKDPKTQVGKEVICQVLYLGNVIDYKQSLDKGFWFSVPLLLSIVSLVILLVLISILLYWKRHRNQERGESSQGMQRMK

- accumulation of transduced T cells over multiple cycles of stimulation with irradiated CD200+ FBL: 3 fold
- fold enrichment, stimulation 3/stimulation 1: 3 fold
- percentage of cytokine non-producing cells (flow cytometry): 27%
- percentage of polyfunctional cells producing all 3 cytokines (IFNγ, IL-2, TNFα): 22%
Substance: CD200R-9aas-CD28Cys (murine construct V) (from UniProt Q9ES57 26-229; P31041 142-218)
- lysis of CD200+ FBL (CFSE-based cytotoxicity assay): 40%
